According to patent publication US20210388068A1 (UNIVERSITY OF MASSACHUSETTS, published 2021):

B1: anti-CfaE HuMab 68-48 (antibody, human IgG1, V domains shown)
VH: QVQLQQWGAGLLKPSETLSLTCAVYGGSFSGYSWSWIRQSPGKGLEWIGEIYHSGSTNYNPSLKSRVTISGDTSKNQFSLKLSSVTAADTAVYYCARENLQGYYYYGMDVWGQGTTVTVSS
VL: AIQLTQSPSSLSASVGDRVTITCRASQGISSSLAWYQQKPGKAPKLLIYDASSLESGVPSRFSGSGSGTDFTLTISSLQPEDFATYYCQQFNSYPRTFGQGTKVEIK
notes: also called 068-48
B2: anti-CfaE HuMab 68-61 (antibody, human IgG1, V domains shown)
VH: QVQLVQSGAEVKNPGSSVRVSCEASGGTFSSFAISWVRQAPGQGLEWMGRIIPILDIVKYAQRFQGRVTISADKSTSTAYMELSSLRSEGTAVYYCARDDIAGSDFDIWGQGTMVTVSS
VL: DIQMTQSPSSLSASVGDRVTITCRASQGISSWLAWYQQKPEKAPKSLIYAASSLQSGVPSRFSGSGSGTDFTLTISSLQPEDFATYYCQQYTSYPYTFGQGTKLEIK
notes: also called 068-61
B3: anti-CfaE HuMab 68-90 (antibody, human IgG1, V domains shown)
VH: QVQLQQWGAGLLKPSETLSLTCAVYGGSFSAYYWSWIRQPPGKGLEWIGEINHSGNTNYNPSLESRVTISVDTSKNQVSLKQSSVTAADTAVYYCARNWGPNAFDIWGRGTMVTVSS
VL: DIQMTQSPSSVSASVGDRVTITCRASQDITSWLVWYQHKPGKAPKLLIYAASSLQSGVPSRFSGSGSGTDFTLTISSLQPEDFATYYCQQANIFPYTFGQGTKLEIK
notes: also called 068-90

How the values were obtained:
[1] = target: T1, N-terminal adhesin domain of CfaE fused to maltose-binding protein (MBP-CfaE-N) (enterotoxigenic Escherichia coli (ETEC), UniProt P25734 23-200); experiment: ELISA on plate-bound MBP-CfaE-N, anti-human IgG Fc-AP, OD405
T1 construct: domain: N-terminal adhesin domain; expressed in SHuffle T7 E. coli and purified on amylose resin; also called recombinant CfaE-N; wild-type CfaE; not shown: donor strand complement included as in Poole et al. 2007
T1 sequence (looked up): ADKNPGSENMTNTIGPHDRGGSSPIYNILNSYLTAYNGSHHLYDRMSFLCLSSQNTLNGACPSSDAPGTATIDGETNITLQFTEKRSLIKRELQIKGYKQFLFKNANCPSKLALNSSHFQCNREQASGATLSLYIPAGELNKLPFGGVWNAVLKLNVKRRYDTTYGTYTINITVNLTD
From the text: FIG. 1A is a graph showing concentration-dependent binding of anti-CfaE antibodies as measured by ELISA. IgG bound to immobilized recombinant CfaE-N was detected with an anti-human IgG Fc-chain-specific alkaline phosphatase-conjugated antibody. Error bars represent the range in OD values observed in two independent experiments. The binding curves of the ten anti-CfaE antibodies are superimposed.
(§1) For binding activity of purified HuMAbs against CfaE, 96-well plates (Nunc) were coated overnight at 4° C. with 2 μg/mL of purified MBP-CfaE-N. Plates were blocked with 1% BSA+0.05% Tween 20 in PBS. Purified HuMabs were diluted in 1×PBS+0.1% Tween 20 and added to plates for 1 hour. Plates were stained with alkaline phosphatase-conjugated goat anti-human IgG Fcγ (Jackson ImmunoResearch Laboratories) (1:1,000) for 1 hour and developed using p-nitrophenyl phosphate (ThermoFisher Scientific).

[2] = target: T1, N-terminal adhesin domain of CfaE fused …; experiment: ELISA on plate-bound wild-type MBP-CfaE-N, OD405
Method: as §1
To define the antibody-binding epitope, putative antibody-antigen interaction models were established based on a previously resolved CfaE structure (PDB ID 2Hb0) and the HuMab antibody sequences using an antibody modeling program, BioLuminate (Schrodinger). This software suite develops models of antibody structures from their sequences, followed by computational docking to identify high-confidence antibody-antigen complex models. Based on these models, the software identified potential residues critical for binding interaction. The effect of these residues on the binding activity of the HuMAbs was analyzed by experimental alanine scanning followed by ELISA. […] The R67A mutation eliminated binding activity of HuMab 68-51 and 68-97 (FIG. 3B), while the Y183A mutation affected binding activity of HuMab 68-51, 68-97, 68-90, 67-102, and 840-53 (FIG. 3E). […] T91A mutation eliminated binding activity of HuMAb 840-53 and reduced binding activities of HuMAbs 68-51, 68-61, 840-53 and 68-48 (FIG. 3C). N127A mutation eliminated binding activity of HuMAb 68-61 and reduced binding of HuMAbs 68-48 and 68-6 (FIG. 3F). All mutations were found on the surface exposed loops of the N-terminal domain of the CfaE (FIG. 3G). No residues involved in the binding of MAb 68-75 to CfaE were identified.

[3] = target: T2, MBP-CfaE-N Tyr183Ala mutant (enterotoxigenic Escherichia coli); experiment: ELISA on plate-bound MBP-CfaE-N Tyr183Ala mutant, OD405
T2 construct: tag;N-terminal adhesin domain; not in the list MOLECULES; also called Y183A
Method: as §1
To define the antibody-binding epitope, putative antibody-antigen interaction models were established based on a previously resolved CfaE structure (PDB ID 2Hb0) and the HuMab antibody sequences using an antibody modeling program, BioLuminate (Schrodinger). This software suite develops models of antibody structures from their sequences, followed by computational docking to identify high-confidence antibody-antigen complex models. Based on these models, the software identified potential residues critical for binding interaction. The effect of these residues on the binding activity of the HuMAbs was analyzed by experimental alanine scanning followed by ELISA. […] The R67A mutation eliminated binding activity of HuMab 68-51 and 68-97 (FIG. 3B), while the Y183A mutation affected binding activity of HuMab 68-51, 68-97, 68-90, 67-102, and 840-53 (FIG. 3E). […]

Binder	EC50 (read off the curve) [1]	EC50 (read off the curve) [2]	EC50 (read off the curve) [3]
B1	~0.03 µg/mL	~0.03 µg/mL	~0.01 µg/mL
B2	~0.03 µg/mL	~0.03 µg/mL	~0.01 µg/mL
B3	~0.03 µg/mL	~0.03 µg/mL	–
